Results: patent US12612459B2, “Methods of identifying agents that block MCD28 cleavage by MMPS” (BIOND BIOLOGICS LTD., priority 2019, dated 2026)
Where no end group is shown, it is not given here.

What was measured:
[1] = biological target: T1, MMP-2 (Homo sapiens, UniProt P08253); test: Fluorogenic assay: cleavage of quenched fluorogenic human CD28 stalk region peptide by MMP-2; assay type: biochemical; settings: increasing dose of inhibitor; FIG. 1C
T1 construct: purchased AnaSpec and R&D Systems AS-72005 / 902-MP
T1 sequence (P08253 110-660): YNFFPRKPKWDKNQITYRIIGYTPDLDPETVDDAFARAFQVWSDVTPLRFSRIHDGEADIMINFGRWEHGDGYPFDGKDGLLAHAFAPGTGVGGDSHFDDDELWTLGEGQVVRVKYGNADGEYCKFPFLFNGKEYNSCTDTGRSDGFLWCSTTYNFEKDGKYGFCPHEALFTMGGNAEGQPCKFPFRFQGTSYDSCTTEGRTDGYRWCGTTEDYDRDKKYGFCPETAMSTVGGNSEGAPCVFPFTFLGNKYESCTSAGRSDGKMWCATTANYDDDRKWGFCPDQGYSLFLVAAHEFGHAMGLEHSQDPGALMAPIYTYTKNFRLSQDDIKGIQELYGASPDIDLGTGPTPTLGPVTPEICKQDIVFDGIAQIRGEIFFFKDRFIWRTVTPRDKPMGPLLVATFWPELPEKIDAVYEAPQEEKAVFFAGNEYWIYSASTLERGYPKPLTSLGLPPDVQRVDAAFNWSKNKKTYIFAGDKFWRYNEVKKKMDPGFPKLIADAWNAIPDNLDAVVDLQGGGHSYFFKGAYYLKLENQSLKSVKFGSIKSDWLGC
Description: (§1) FIGS. 1A-1E. (1A-1E) Line graphs of fluorescence from quenched fluorogenic peptides of the human CD28 stalk region incubated with (1A) various recombinant human sheddases, (1B) varying concentrations of rhMMP-2, (1C) MMP-2 and various concentrations of the MMP-2 specific inhibitor ARP-100, (1D) varying concentrations of rhMMP-13, or (1E) MMP-13 and broad MMP inhibitor TMI-1.
(§2) Matrix Metalloproteinases and ADAM's—Commercial recombinant human metalloproteinases MMP-1 (Cat. No. AS-55575), MMP-9 (Cat. No. AS-55576), MMP-10 (Cat. No. AS-72067), MMP-12 (Cat. No. AS-55525) and MMP-13 (Cat. No. AS-72257) are from AnaSpec. […]
(§3) Fluorogenic Assay—The assay was performed with indicated MMP's (10 or 30 ng) in 50 mM Tris, 10 mM CaCl2), 150 mM NaCl, 0.05% Brij-35, pH 7.5 or ADAM10/ADAM17 (5 μg/mL) in 25 mM Tris, 2.5 mM ZnCl2 and 0.005% Brij-35, pH 9. Cleavage of the fluorogenic substrate (10 μM) was measured at Ex340/Em490 nm using Biotek Synergy H1 spectrofluorometer.
(§4) It has been hypothesized that ADAM-10 and ADAM-17 may play a role in this shedding. […] When intact, the fluorochrome on the peptide is quenched and no fluorescence is measured. Cleavage of the peptide allows the fluorochrome to dissociate from the quencher and fluorescence is measurable by a dedicated reader. […] The peptide alone without any sheddase added was used as a control to normalize the readings. […]

[2] = biological target: T2, MMP-13 (Homo sapiens, UniProt P45452); test: Fluorogenic assay: cleavage of quenched fluorogenic human CD28 stalk region peptide by MMP-13; assay type: biochemical; settings: increasing dose of inhibitor; FIG. 1E
Description: as §1, §2, §3, §4

[3] = test system: chronically stimulated human PBMCs; settings: previously shown in WO2019/175885; dose dependent; cited from earlier work
[4] = biological target: T2, MMP-13; test: In-vitro cleavage assay of c-Myc tagged, biotinylated dimeric CD28 stalk region peptide by rhMMP-13 (ELISA detection of intact peptide); assay type: biochemical; settings: 25 ng and 50 ng MMP-13, 5-hour incubation; FIG. 4D
[5] = biological target: T1, MMP-2; test: In-vitro cleavage assay of c-Myc tagged, biotinylated dimeric CD28 stalk region peptide by rhMMP-2 (ELISA detection of intact peptide); assay type: biochemical; settings: 25 ng and 50 ng MMP-2, 5-hour incubation; FIG. 4C
[6] = biological target: T3, human CD28 stalk region (Homo sapiens, UniProt P10747); test: Binding to human CD28 stalk region dimeric peptide by ELISA; settings: for binding to human CD28 stalk region sequence: ELISA, serial dilution of VHH clones, FIG. 5; for specific binding to MMP cleavage site of human CD28: WT versus L145K stalk region dimeric peptides, VHH 0.2-5 μg/mL, FIG. 7
T3 construct: human CD28 stalk region (His134-Pro152)

Molecule: CC(C)ON(CC(=O)NO)S(=O)(=O)c1ccc(-c2ccccc2)cc1 [ARP-100]
- cleavage of the CD28 stalk fluorogenic peptide by MMP-2 [1]: cleavage decreased in a dose dependent manner

Molecule: CC#CCOc1ccc(S(=O)(=O)N2CCSC(C)(C)[C@@H]2C(=O)NO)cc1 [TMI-1]
- cleavage of the CD28 stalk fluorogenic peptide by MMP-13 [2]: cleavage decreased in a dose dependent manner

Molecule: TAPI
- levels of sCD28 produced by chronically stimulated human PBMCs [3]: diminish levels of sCD28

Molecule: mutated peptide: cMyc tagged, biotinylated dimeric CD28 stalk region peptide with L145K, EQKLISEEDLGGGGHVKGKHLCPSPKFPGPSKP (SEQ ID NO: 19) (EQKLISEEDLGGGGHVKGKHLCPSPKFPGPSKP-biotin; also: dimeric peptide) [reference compound]
- peptide cleaved by MMP-13 [4]: < 5%
- peptide cleaved by MMP-2 [5]: < 5%

B1: clone 4A4: llama-derived VHH single domain antibody binding the human CD28 stalk region, SEQ ID NO: 30, C-terminal His-tag (protein)
VHH: EVQLVESGGGLVQAGGSLRLSCAASGSLFSINAMAWYRQAPGKQRELVAAITSSGSTNYANSVKGRFTVSRDNAKNTMYLQMNSLKPEDTAVYYCVVDEYGSDYWIWGQGTQVTVSSAAAHHHHHH
modifications: C-terminal His-tag
- binding to human CD28 stalk region sequence [6]: specifically bind the stalk region of human CD28
- specific binding to MMP cleavage site of human CD28 [6]: bind specifically to MMP cleavage site of human CD28

B2: clone 4A1: llama-derived VHH single domain antibody binding the human CD28 stalk region, SEQ ID NO: 31, C-terminal His-tag (protein)
VHH: QVQLVESGGGLVQAGGSLRLSCAASGSIFSINAMGWYRQAPGKQRERVAAITSGGSTNYADSVKGRFTISRDNAKNTVYLQMNNLEPRDAGVYYCVVDLYGEDYWIWGQGTQVTVSSAAAHHHHHH
modifications: C-terminal His-tag
- binding to human CD28 stalk region sequence [6]: specifically bind the stalk region of human CD28
- specific binding to MMP cleavage site of human CD28 [6]: bind specifically to MMP cleavage site of human CD28
